Experimental data: article PMC4670726 (2015)
Ends that are not written are not given here.

B1: JNK1 (as used in the fluorescence polarization titrations) (enzyme)
chain: MSRSKRDNNFYSVEIGDSTFTVLKRYQNLKPIGSGAQGIVCAAYDAILERNVAIKKLSRPFQNQTHAKRAYRELVLMKCVNHKNIIGLLNVFTPQKSLEEFQDVYIVMELMDANLCQVIQMELDHERMSYLLYQMLCGIKHLHSAGIIHRDLKPSNIVVKSDCTLKILDFGLARTAGTSFMMTPYVVTRYYRAPEVILGMGYKENVDLWSVGCIMGEMVCHKILFPGRDYIDQWNKVIEQLGTPCPEFMKKLQPTVRTYVENRPKYAGYSFEKLFPDVLFPADSEHNKLKASQARDLLSKMLVIDASKRISVDEALQHPYINVWYDPSEAEAPPPKIPDKQLDEREHTIEEWKELIYKEVMDLEERTKNGVIRGQPSPLGAAVINGSQHPSSSSSVNDVSSMSTDPTLASDTDSSLEAAAGPLGCCR

Columns and labels:
Experiment in all cases: FP
[1] = molecular target: B1
[2] = molecular target: ERK2 (as used in the fluorescence polarization titrations) (human, UniProt P28482 1-360)
[3] = molecular target: p38α (as used in the fluorescence polarization titrations) (human, UniProt Q16539 1-360)
GAB3+ peptide = molecular target: GAB3+ peptide

Binder | Kd [1] [µM] | Kd [2] [µM] | Kd [3] [µM] | Kd (GAB3+ peptide) [µM]
RPKSLQL (not fully specified) [DOCK5 peptide] | 5.1 | 31.8 | – | –
KKKSKPLNLKIH (not fully specified) [KSR2 peptide] | 24.7 | 13.5 | 4.9 | –
RPTTLPL (not fully specified) [PDE4B peptide] | 16.4 | – | – | –
RHRDKRLSLNLP (not fully specified) [GAB3 peptide] | 14.5 | 22.6 | 5.2 | –
DPLHPTL (also: non-native Glu flanks added at both ends, number not given here) [ATF7 peptide] | 21.1 | – | – | –
KKIQPKLSLT (not fully specified) [JAZF1 peptide] | – | 15 | 8.9 | –
RPKSLNL (not fully specified) [APBA2 peptide] | 10.8 | – | – | –
RKHKDLYLPL (not fully specified) [DCX peptide] | 16.7 | – | 29.5 | –
KEKSGSLKLRIP (not fully specified) [CCNT2 peptide] | – | 14.4 | 24.5 | –
RPTSLAL (not fully specified) [MYO9B peptide] | 15.9 | – | – | –
KRRSLRVHIP (not fully specified) [AAKG2 peptide] | – | 17.5 | 8.2 | –
RPQDLNL (not fully specified) [MKP5 peptide] | 19.3 | 84.7 | – | –
RPASLNL (not fully specified) [DOCK7 peptide] | 7.3 | 51.2 | – | –
LQRKKPPWLKLDIP (not fully specified) [RHDF1 peptide] | – | – | 1.2 | –
RPTRLSL (not fully specified) [IRS1 peptide] | 3.5 | – | 74.6 | –
B1 | – | – | – | 13.2
